Reference: patent US20050221459

Substance	Turnover numbers under the optimal substrate concentrations (Ras-CVLS (SEQ ID NO: 3))	substrate specificity characterized by enzymatic assays (Ras-CVLS (SEQ ID NO: 3))	Turnover numbers under the optimal substrate concentrations (Ras-CVLL (SEQ ID NO: 4))
Human protein farnesyltransferase (hFTase)	1 min⁻¹	–	–
W102T mutant of human FTase (W102β converted to threonine)	0.59 min⁻¹	creating an FTase enzyme greatly preferring GGPP over FPP as its isoprenoid substrate without significantly altering Ca1a2X sequence specificity	–
Wild-type GGTase-I used in the prenylation assay of Example 3	–	–	0.65 min⁻¹
